Test results taken from patent US20210088514A1 (ACADEMIA SINICA, published 2021).

Biological target: T1, epithelial cell adhesion molecule (EpCAM) (UniProt P16422 24-314, limits assumed)
T1 construct: whole, on cells; also called EpCAM membrane protein
T1 sequence (looked up): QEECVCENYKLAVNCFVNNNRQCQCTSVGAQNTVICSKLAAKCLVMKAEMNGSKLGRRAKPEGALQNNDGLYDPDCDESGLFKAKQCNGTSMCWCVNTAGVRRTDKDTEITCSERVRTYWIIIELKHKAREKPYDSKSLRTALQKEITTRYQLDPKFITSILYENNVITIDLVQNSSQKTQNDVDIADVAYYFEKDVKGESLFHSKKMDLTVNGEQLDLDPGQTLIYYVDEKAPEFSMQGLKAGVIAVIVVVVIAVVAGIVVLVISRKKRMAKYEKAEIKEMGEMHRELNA
Assay: capture of HCT116 and SAS cells on antibody surface coating, colorimetric read-out at OD 490 nm
Description: The binding specificity of biotinylated OC9801 antibody, biotinylated EpAb4-1 antibody and biotinylated EpCam antibody (commercially available from R&D system, USA) were examined using the HCT116 (colorectal) CTCs and SAS (tongue) CTCs.
The CTC binding specificy of the antibodies was determined by colorimetric method, by measuring the absorption optical density at 490 nm.

B1: biotinylated EpAb4-1 antibody (antibody, V domains shown)
VH: QIQLVQSGPELKKPGETVKISCKASGYTFTNYGMNWVKQAPGKGLKWMGWINTYTGEPTYGDDFKGRFAFSLETSASTAYLQINNLKNEDTATYFCARFGRSVDFWGQGTSVTVSS
VL: DIVMTQAAFSNPVTLGTSASISCRSSKSLLHSNGITYLYWYLQKPGQSPQLLIYHMSNLASGVPDRFSSSGSGTDFTLRISRVEAEDVGIYYCAQNLENPRTFGGGTKLEIK
modifications: biotinylated with Sulfo NHS-LC-Biotin; ratio of biotin and antibody 1.5 to 1; sites not stated
notes: Immobilised through streptavidin on the surface coating in the assay; also called bEpAb4-1; biotinylated anti-EpCam antibody
B1: binds.
